Source: article PMC8617172, “Architecture of the outer-membrane core complex from a conjugative type IV secretion system” (Nature Communications, 2021)

Experiments:
Experiment in all cases: cryo-EM structure; OMCC of TraB-strep, TraK and TraV co-expressed in E. coli, purified from membranes in 50 mM Tris-HCl pH 7.5, 300 mM NaCl, 0.23% w/v LDAO; 0.1 mg/ml on Lacey grids with ultrathin carbon; single-particle maps with C17 (inner ring, 3.3 Å), C13 (outer ring, 3.4 Å) and C1 (5.7 Å) symmetry
[1] = target: TraB (pED208 F-T4SS outer-membrane core complex protein, VirB10 homologue), strep-tagged (E. coli (plasmid pED208))
[2] = target: TraV (pED208 F-T4SS outer-membrane core complex lipoprotein, VirB7 homologue) (E. coli (plasmid pED208)) (UniProt P41069)
[3] = target: the molecule itself

## TraB (pED208 F-T4SS outer-membrane core complex protein, VirB10 homologue), strep-tagged (natural protein)
[1]
  stoichiometry N: 17 chains

## TraK (pED208 F-T4SS outer-membrane core complex protein, VirB9 homologue) (natural protein)
[1]
  stoichiometry N (TraK per TraB): 1.53

## TraV (pED208 F-T4SS outer-membrane core complex lipoprotein, VirB7 homologue) (from UniProt P41069 19-171) (natural protein)
[1]
  stoichiometry N (TraV per TraB): 1.53
[2]
  stoichiometry N: 26 chains

B1: TraK (pED208 F-T4SS outer-membrane core complex protein, VirB9 homologue) (natural protein)
chain: AQSPATISLPQGGQFRLSISNTDPNMIFIPGDKVTAITAPGGMLADKRLTTAGGVLFTSVATRTFTIFVETALGQTFSVVATPVKGEGRVYRLMSAEPPSRPETRKWETAQAYEKLLISLNRAVLTGDIPDGYGEVKPLSDGIRLPGGFSVTPLKAWAGDQLRADRYELRNANTWGVALREQDFWKPGVRAVMFDNNAQTLMGGGRMTVTVIRGNG
notes: TraK1 and TraK2 are two conformations of the same chain; 26 copies in the whole OMCC; also called TraK (VirB9); TraK1
[3]
  stoichiometry N: 26 chains
